Bridge positions count the residues as written; N and C are the ends. Ends that are not written are not given here. I, II: the chains in the order shown.
Assays:
[1] = target: T1, Human relaxin receptor on THP-1 cells (human, UniProt Q9HBX9 1-757); test: competition with 33P-labeled H2 (B33) relaxin (100 pM) for binding to THP-1 cells
T1 construct: whole, on cells; also called human relaxin receptors
T1 sequence (looked up): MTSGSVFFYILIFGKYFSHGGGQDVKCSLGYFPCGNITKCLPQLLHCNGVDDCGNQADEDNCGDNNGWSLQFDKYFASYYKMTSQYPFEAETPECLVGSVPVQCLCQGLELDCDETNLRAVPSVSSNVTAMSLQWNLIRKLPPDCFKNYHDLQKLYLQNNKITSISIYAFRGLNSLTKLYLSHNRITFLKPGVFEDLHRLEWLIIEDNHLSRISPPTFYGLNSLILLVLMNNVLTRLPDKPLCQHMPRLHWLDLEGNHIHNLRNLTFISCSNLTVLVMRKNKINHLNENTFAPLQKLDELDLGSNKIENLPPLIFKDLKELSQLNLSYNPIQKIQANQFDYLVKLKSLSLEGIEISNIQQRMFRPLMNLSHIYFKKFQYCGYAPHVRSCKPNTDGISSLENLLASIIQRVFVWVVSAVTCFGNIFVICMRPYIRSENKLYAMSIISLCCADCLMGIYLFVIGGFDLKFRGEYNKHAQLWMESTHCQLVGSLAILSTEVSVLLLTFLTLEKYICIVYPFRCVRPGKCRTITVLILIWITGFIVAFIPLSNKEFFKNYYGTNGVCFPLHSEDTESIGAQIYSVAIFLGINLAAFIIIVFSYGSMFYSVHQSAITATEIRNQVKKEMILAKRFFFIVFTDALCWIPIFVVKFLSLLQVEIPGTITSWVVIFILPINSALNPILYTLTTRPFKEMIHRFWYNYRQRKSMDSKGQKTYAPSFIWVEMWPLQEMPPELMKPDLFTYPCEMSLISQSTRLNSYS
Protocol: THP-1 Cell Binding Assay—THP-1 cells were spun down and resuspended in binding buffer (20 mM HEPES, 50 mM NaCl, 1.5 mM CaCl₂, 1% BSA, 0.1 mg/ml lysine, 0.01% […], pH 7.5) (Parsell et al (1996) J. Biol. Chem. 271, 27936-27941) to give 2×10⁶ cells/well in a 96-well plate. The cells were incubated in binding buffer with ³³P-labeled H2 (B33) relaxin (100 pM: labeled as previously described (Tan et al (1999) Br. J. Pharmacol. 127, 91-98) at 25° C. for 90 min in the absence or presence of increasing concentrations of unlabeled H1, H2 and H3 relaxin (100 pM to 30 nM). Non-specific binding was defined with H2 relaxin (1 μM. Cells were harvested using a Packard 96-well plate cell harvester and Whatman GF/C glass fibre filters treated with 0.5% polyethylenimine. The filters were washed three times with modified binding buffer (20 mM HEPES, 50 mM NaCl, 1.5 mM CaCl₂), dried in a 37° C. oven, and the radioactivity counted by liquid scintillation spectrometry (TopCount™, Canberra Packard, Australia).

[2] = target: T1, Human relaxin receptor on THP-1 cells; test: cell-based or functional assay

Binder	pKi [1]	cAMP production in THP-1 cells, EC50 [2]	cAMP production in THP-1 cells, pEC50 [2]
Recombinant human H2 relaxin (ligand, not fully specified (bridges); ends and bridges not checked, mature; Gift from Connetics Corporation; also called human 2 relaxin) chain 1: QLYSALANKCCHVGCTKRSLARFC chain 2: DSWMEEVIKLCGRELVRAQIAICGMSTWS	8.74	0.214 nM	9.67
Synthetic human H1 relaxin (ligand, mature; Synthesized previously (Wade et al 1996); also called human 1 relaxin) chain 1: RPYVALFEKCCLIGCTKRSLAKYC chain 2: KWKDDVIKLCGRELVRAQIAICGMSTWS	8.9	0.794 nM	9.1
Synthetic human H3 relaxin [hRlx-3 A(1-24) amide-B(1-27) amide] (ligand, disulfide I:10-I:15, I:11-II:10, I:24-II:22, Made by solid phase synthesis; also called human 3 relaxin; synthetic H3 relaxin C-terminal amide derivative) chain 1: DVLAGLSSSCCKWGCSKSEISSLC-NH2 chain 2: RAAPYGVRLCGREFIRAVIFTCGGSRW-NH2	7.5	2.11 nM	8.68

Source: US20050026822A1 (HOWARD FLOREY INSTITUTE OF EXPERIMENTAL PHYSIOLOGY AND …, published 2005)
